# Experimental data taken from patent publication US20250277030A1, “ANTI-NAPI2B ANTIBODIES AND METHODS OF USE” (Zymeworks BC Inc., priority 2022, published 2025).
# B1: v29456: humanized anti-NaPi2b IgG1/kappa antibody H1L2; VH SEQ ID NO:24, VL SEQ ID NO:29 (antibody, V domains shown)
# VH: QVQLVQSGAEVKKPGASVKVSCKASGFTFTSYNVHWVRQAPGQGLEWMGAISPGNGDLSYAQKFQGRVTMTRDTSTSTVYMELSSLRSEDTAVYYCARGRTGMGAVDYWGQGTLVTVSS
# VL: DVQMTQSPSSLSASVGDRVTITCRASQDVYSYLNWYQQKPGKAVKLLIYYTSRLQSGVPSRFSGSGSGTDYTLTISSLQPEDFATYYCQQYNIFPWTFGQGTKLEIK
# modifications: v29452, v29456, v29460 VH (H1); v29453, v29454, v29455, v29456 VL (L2)
# Columns and labels:
# [1] = test system: KLH; assay: NS-ELISA non-specific binding, KLH; conditions: mAb at 100 nM
# Protocol: The isoelectric point was measured by capillary isoelectric focusing (cIEF), the propensity for self-aggregation was measured by Affinity-capture self-interaction nanoparticle spectroscopy (AC-SINS) and non-specific binding was measured by NS-ELISA, as described below.
# NS-ELISA was used to measure the propensity of the antibodies to bind to a range of biomolecules to emulate the undesirable non-specific interactions to biological matrices in vivo as described below.
# NS-ELISA was carried out in Corning®96-well EIA/RIA Easy Wash™ Clear Flat Bottom Polystyrene High Bind Microplate coated overnight at 4° C. with 50 μL of Heparin (Sigma, H3149) diluted with 50 mM sodium carbonate pH 9.6 to a final concentration of 250 μg/mL. The plate was incubated for 2 days at room temperature, wells that were coated with heparin were not covered to allow air dry. […] Reactions were stopped after approximately 10 minutes by adding 100 μL of 1 M HCl to each well, and absorbance was read at 450 nm. Binding scores were calculated as the ratio of the ELISA signal of the antibody (antibody-treated) to the signal of a well containing buffer instead of the primary antibody (untreated). The cutoffs considered for each binding molecule (ssDNA, KLH, insulin, dsDNA and heparin) were internally calculated, based on the average of Zymeworks Inc. produced antibodies and antibodies benchmarks published in the literature.
# [2] = Stability (fragmentation) in PBS pH 7.4 at 37° C. by LC-MS; type: physicochemical; conditions: for apparent % desired proteoforms: PBS 37° C., 0.5 mg/ml
# Protocol: (§1) Samples were removed after 0, 7 and 14 days and stored at −80° C. until characterization. For characterization, samples were thawed at room temperature and 50 μg were incubated with 5 μg of recombinant EndoS endoglycosidase for one hour at room temperature. An immunoprecipitation slurry was generated by a 45 min incubation of 95 μL/sample of magnetic Sepharose streptavidin-coated beads with 15 μg/sample of biotinylated goat anti-Human IgG Fc capture antibody, followed by 4 washes with PBS pH 7.4 with the aid of a DynaMag™-2 magnet (Invitrogen™).
# (§2) After deglycosylation, plasma-incubated samples were incubated with 95 μL of the immunoprecipitation slurry for 1.5 hrs at room temperature. Then, the slurry underwent 6 washes with PBS pH 7.4 and 2 washes with LC-MS-grade water with the aid of a DynaMag™-2 magnet (Invitrogen™). A final wash with PBS pH 7.4 was performed before elution. Protein was eluted by incubating beads with 35 μL of LC-MS grade water with 20% acetonitrile and 0.1% formic acid for one hour at room temperature. PBS samples were not immunoprecipitated.
# (§3) 5 μL of the eluted sample were transferred to glass inserts in LC-MS vials. For LC-MS analysis, 1 μL of sample were injected into a Waters™ BioSuite Phenyl Column, 1000 Å, 10 μm, 4.6 mm×75 mm using a Waters™ ACQUITY™ UPLC I-Class HPLC system coupled to a Waters™ Synapt™ G2-Si HDMS with a column temperature of 70 C and a flow rate of 0.3 mL/min. Mobile phases consisted of A: LC-MS grade water with 0.1% v/v formic acid, 0.025 v/v trifluoroacetic acid and 10% v/v isopropyl alcohol in, and B: acetonitrile with 0.1% v/v formic acid and 10% v/v isopropyl alcohol. The column was pre-equilibrated in 10% mobile phase B before injection. Then, a 20 min 10 to 27% mobile phase B gradient was applied, followed by a 2 min 27 to 90% mobile phase B gradient and a column wash of 2 min at 99% mobile phase B.
# (§4) The column was re-equilibrated to 10% mobile phase B for 2 minutes between runs. ESI was performed in positive mode with 3 kV of capillary voltage, 120 C source temperature, 100 V sampling cone voltage, source offset of 80 V, source gas flow of 0 ml/min, desolvation temperature 500 C, cone gas flow 0 μL/Hr, desolvation gas flow […], nebuliser gas flow 6.5 bar. Data format was continuum with analyser set in sensitivity mode, with a m/z range from 500 to 7000.
# (§5) Peak integration, MS deconvolution and mass assignments were performed in Protein Metrics Byos® v4.0 using a deconvolution window of 60000-160000 Da with an m/z range of 1000-4000. For all time points, the highest intensity deconvoluted mass was assigned as the reference mass of v29456. […]
# [3] = Stability (fragmentation) in mouse plasma at 37° C. by LC-MS; type: in vitro ADME; conditions: for apparent % desired proteoforms: Mouse Plasma 37° C., 0.5 mg/ml
# Protocol: as §1, §2, §3, §4, §5
molecule,measurement,setting,value
B1,"NS-ELISA binding score (ratio of signal between antibody-treated and untreated), KLH",[1],1.37
same,"fragmentation in PBS pH 7.4, in words","[2]; 37° C., 7 and 14 days",no evidence of fragmentation
same,apparent % desired proteoforms,[2]; 0 days,99.8%
same,apparent % desired proteoforms,[2]; 7 days,99.2%
same,apparent % desired proteoforms,[2]; 14 days,99.6%
same,"fragmentation in mouse plasma, in words","[3]; 37° C., 7 and 14 days",no evidence of fragmentation
same,apparent % desired proteoforms,[3]; 0 days,99.9%
same,apparent % desired proteoforms,[3]; 7 days,100.0%
same,apparent % desired proteoforms,[3]; 14 days,98.4%
